Experimental findings from patent publication US20230126689A1 (GO THERAPEUTICS, published 2023) are described below.

The target in experiment [1] is T1, CD44v6 glycopeptide … with O-linked GalNAc on threonine 5 and serine 12 (human, not fully specified (residue 12)).
T1 construct: Synthetic 19-residue glycopeptide made by FMOC synthesis; also called CD44v6-Tn(S + T); Tn-glycosylated CD44v6 glycopeptide
T1 peptide: GYRQT(αGalNAc)PKEDSHSTTGTAAA
In words: hybridoma screening (ELISA, flow cytometry, immunofluorescence).

The target in experiment [2] is T1, CD44v6 glycopeptide … with O-linked …. The experiment in a line: SPR (Biacore); Biacore, not Octet.
For experiment [3], the target named is T2, CD44v6 peptide glycoform CD44v6-Tn(S) (human, not fully specified (residue 12); also: GalNAc (Tn) on serine only, position not given here).
T2 construct: That the serine is Ser 12 is inferred from the two-site glycopeptide
T2 peptide: GYRQTPKEDSHSTTGTAAA
The experiment in a line: BLI (Octet); Octet; Tn(S) glycoform.

The target in experiment [4] is T1, CD44v6 glycopeptide … with O-linked …. The experiment in a line: BLI (Octet), apparent affinity with avidity factored in.
A further experiment addresses T3, Tn-glycosylated MUC1 (UniProt P15941 138-197, limits assumed, Tn (GalNAc) glycosylated; sites not stated for the material used).
T3 construct: also called MUC1-Tn
In words: Biacore (surface plasmon resonance); row MUC1-Tn, column Affinity (Biacore).

Ends that are not written are not given here. * marks the point of attachment. αGalNAc = CC(=O)N[C@@H]1[C@@H](O)[C@@H](O)[C@@H](CO)O[C@@H]1* A value given as a limit tells only on which side of the number the result lay.

T3 sequence (P15941 138-197 limits assumed): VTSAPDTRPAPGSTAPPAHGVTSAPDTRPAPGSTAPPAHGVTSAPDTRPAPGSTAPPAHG

B1: 10H4 monoclonal antibody (antibody, V domains shown)
VH: QSLEESGGRLVTPGTPLTLTCTASGFTINTYHMGWFRQAPGKGLQYIGIVSHDVGTYYATWAKGRFTISKTSSTTVDLRMPSPTTEDTATYICARGPGYWTFNLWGQGTLVTVSS
VL: AQVLTQTPASVSAAVGGTVTINCQASQSVYNNNQLSWYQQKPGQPLKQLIYKASTLASGVPSRFKGSGSGSQFTLTISDLECDDAATYFCAGGYKGDIHPFGGGTEVVVK
notes: Rabbit antibody
B1: the binding result in experiment [1] is listed as “binds”.

B2: 1D12 monoclonal antibody (antibody, V domains shown)
VH: DVQLVESGGGLVQPGGSRKLSCAASGFTFSSFGIHWVRQAPEKGLEWVAYISSGSSTIYYADTVKGRFTISRDNPKNTLFLQMTSLRSEDTAMYYCARGSKVVAKSRGYWYFDVWGAGTTVTVSS
VL: DVVVTQTPLFLPVSFGDQVSISCRSSQSLANNYGITYLSWYLHRPGQSPQLLIYGISNRFSGVPDRFSGSGSGTDFTLKISTIKPEDLGMYYCLQGTHQPWTFGGGTKLEIK
notes: Murine hybridoma antibody
Regarding B2, the binding result in experiment [1] is given as “binds”.

B3: 18G9 monoclonal antibody (antibody, V domains shown)
VH: DVQLVESGGGLVQPGGSRKLSCAASGFTFSSFGMHWVRQAPEKGLEWVAYISSGSSTIYYADTVKGRFTISRDNPKNTLFLQMTSLRSEDTAMYYCARGSYRAMDYWGQGTSVTVSS
VL: QIVLTQSPALMSASPGEKVTMTCSASSSVNYMFWYQQKPRSSPKPWIYLTSNLASGVPARFSGSGSGTSYSLTISSMEAEDAATYYCQLWSSNPFTFGSGTKLEIK
notes: Murine hybridoma antibody
B3: the binding result in experiment [1] was “binds”.

B4: 2B2 monoclonal antibody (antibody, V domains shown)
VH: EVQLVESGGGLVKPGGSLKLSCAASGFTFSSYAMSWVRQSPERRLEWVAEISSGGSYTYYPDTVTGRFTISRDNAKNTLYLEMSSLRSEDTAMYYCARTVGEDWYFDVWGAGTTVTVSS
VL: DIQMTQTTSSLSASLGDRVTISCRASQDISHYLNWYQQKPDGAVKLLIYSTSRLHSGVPSRFSGSGSGTDYSLTISNLEQEDIATYFCQQGYTLPFTFGSGTKLEIK
notes: Murine hybridoma antibody
With B4, the binding result in experiment [1] was “binds”.

B5: 4C8 monoclonal antibody (antibody, V domains shown)
VH: QVQLQQPGSELVRPGASVKLSCKASGYTFTSYWMHWVKQRPGQGLEWIGNIYPRSGTTNYDGYFKSKATLTVDTSSSTAYMQLSSLTSEDSAVYFCTRSGYDYPFVYWGQGTLVTVSA
VL: QAVVTQESALTTSPGETVTLTCRTSTGAVSIRNYANWVQEKPDHLFTGLIGGTNNRAPGVPARFSGSLIGDKAALTITGAQPEDEAIYFCALLYSNYWVFGGGTKLTVL
notes: Murine hybridoma antibody from Balb/c mice immunised with the KLH-conjugated CD44v6 glycopeptide; It was detected with anti-mouse IgG Fc-gamma, and used as purified mAb or as hybridoma supernatant; also called 4C8 mAb; mAb 4C8
As for B5, the Kd in experiment [2] is 128 nM; in experiment [3] it was 6.4 nM; in experiment [4] it was 7.9 nM; in the experiment with Tn-glycosylated MUC1 it was above 400 nM.
